Test in all cases: sandwich ELISA (rabbit anti-L1 capture)
For one assay, the target named is T1, HPV31L1 (human papillomavirus type 31, UniProt P17388 1-504).
T1 sequence: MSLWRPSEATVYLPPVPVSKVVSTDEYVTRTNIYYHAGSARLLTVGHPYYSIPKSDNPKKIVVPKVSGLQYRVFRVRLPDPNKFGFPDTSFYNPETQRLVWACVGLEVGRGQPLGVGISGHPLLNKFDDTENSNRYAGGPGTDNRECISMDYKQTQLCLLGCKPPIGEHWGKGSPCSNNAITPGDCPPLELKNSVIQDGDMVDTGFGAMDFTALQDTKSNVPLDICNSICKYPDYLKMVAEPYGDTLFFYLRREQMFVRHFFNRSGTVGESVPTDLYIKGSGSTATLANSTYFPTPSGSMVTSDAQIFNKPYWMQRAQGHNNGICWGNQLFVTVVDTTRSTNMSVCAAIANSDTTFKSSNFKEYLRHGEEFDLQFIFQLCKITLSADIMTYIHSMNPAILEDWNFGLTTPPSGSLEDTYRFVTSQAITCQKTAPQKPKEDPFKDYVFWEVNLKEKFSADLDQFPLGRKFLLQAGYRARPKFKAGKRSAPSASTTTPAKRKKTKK

Another assay has as its target T2, HPV52L1 (human papillomavirus type 52, UniProt Q05138 27-529).
T2 sequence: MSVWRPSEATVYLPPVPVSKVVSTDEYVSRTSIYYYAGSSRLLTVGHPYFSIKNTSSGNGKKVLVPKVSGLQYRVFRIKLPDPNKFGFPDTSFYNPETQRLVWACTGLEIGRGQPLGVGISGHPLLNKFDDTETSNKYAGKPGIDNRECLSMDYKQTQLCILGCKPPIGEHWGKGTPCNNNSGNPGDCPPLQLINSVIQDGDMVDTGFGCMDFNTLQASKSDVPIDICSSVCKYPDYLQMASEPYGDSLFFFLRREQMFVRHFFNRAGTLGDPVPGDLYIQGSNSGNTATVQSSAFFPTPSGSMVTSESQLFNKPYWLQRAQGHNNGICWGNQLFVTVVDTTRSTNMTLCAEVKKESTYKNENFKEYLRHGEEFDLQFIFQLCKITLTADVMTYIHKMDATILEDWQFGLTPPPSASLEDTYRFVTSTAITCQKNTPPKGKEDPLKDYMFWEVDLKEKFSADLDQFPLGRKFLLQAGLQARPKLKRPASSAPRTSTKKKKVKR

The target of a further assay is T3, HPV35L1 (human papillomavirus type 35, UniProt P27232 1-502).
T3 sequence: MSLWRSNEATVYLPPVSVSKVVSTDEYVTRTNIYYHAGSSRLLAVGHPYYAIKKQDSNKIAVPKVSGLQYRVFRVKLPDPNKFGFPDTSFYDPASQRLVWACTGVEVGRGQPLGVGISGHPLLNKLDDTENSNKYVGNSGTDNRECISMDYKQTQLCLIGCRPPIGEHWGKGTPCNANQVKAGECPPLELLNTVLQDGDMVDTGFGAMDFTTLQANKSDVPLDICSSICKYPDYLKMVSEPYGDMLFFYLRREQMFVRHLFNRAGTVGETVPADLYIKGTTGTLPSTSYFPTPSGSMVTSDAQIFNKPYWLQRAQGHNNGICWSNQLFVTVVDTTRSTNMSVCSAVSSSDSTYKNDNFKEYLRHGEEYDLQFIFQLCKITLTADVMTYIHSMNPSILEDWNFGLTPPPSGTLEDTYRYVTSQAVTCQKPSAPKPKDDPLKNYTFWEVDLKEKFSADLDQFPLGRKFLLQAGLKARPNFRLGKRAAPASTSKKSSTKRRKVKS

B1: HPV 59编号为30单克隆抗体 (antibody, V domains shown)
VH: QIQLVQSGPELKKPGETVKISCKASGYTFTDYSMHWVKQAPGKGLKWMGWINTETGEPTYADDFKGRFAFSLETSASTAYLQINNLKIEDTATYFCTRDGYVWYFDVWGAGTTVTVSS
VL: QIVLSQSPAILSASPGEKVTMTCRASSSVNYMHWYQQKPGSSPKPWIYATSNLASGVPARFSGSGSGTSYSLTISRVEAEDAATYYCQQWSSNPIFTFGSGTKLEIK
notes: Mouse hybridoma antibody tested as cell supernatant; also called 59H30
Regarding B1, the binding result with HPV31L1, with HPV52L1 and in the assay with HPV35L1 was “no binding (tested: 原液40μg/ml; 细胞上清1:100)” in each case.

Source of the values: CN117736312A (SHANGHAI BOVAX BIOLOGICAL SCIENCE & TECH CO LTD, dated 2024).
